Values of other authors as cited in patent publication EP1666054A1, “Method for administering insulinotropic peptides” (priority 1998, dated 2006).

Details: pulmonary delivery; calculated, background statement

For parathyroid hormone (1-34), the “Absorption values (delivered through the lungs)” value is listed as “fifteen”.
